Measurements: patent US20220332844A1 (ORIONIS BIOSCIENCES, published 2022)
Residue numbers refer to the chain shown, from its start.

T1: mouse FAP on transiently transfected HEK293T cells (pMET7 FLAG-mFAP) (mouse, UniProt P97321 1-761)
T1 construct: whole, on cells; not shown: FLAG tag of the plasmid pMET7 FLAG-mFAP
T1 sequence (looked up): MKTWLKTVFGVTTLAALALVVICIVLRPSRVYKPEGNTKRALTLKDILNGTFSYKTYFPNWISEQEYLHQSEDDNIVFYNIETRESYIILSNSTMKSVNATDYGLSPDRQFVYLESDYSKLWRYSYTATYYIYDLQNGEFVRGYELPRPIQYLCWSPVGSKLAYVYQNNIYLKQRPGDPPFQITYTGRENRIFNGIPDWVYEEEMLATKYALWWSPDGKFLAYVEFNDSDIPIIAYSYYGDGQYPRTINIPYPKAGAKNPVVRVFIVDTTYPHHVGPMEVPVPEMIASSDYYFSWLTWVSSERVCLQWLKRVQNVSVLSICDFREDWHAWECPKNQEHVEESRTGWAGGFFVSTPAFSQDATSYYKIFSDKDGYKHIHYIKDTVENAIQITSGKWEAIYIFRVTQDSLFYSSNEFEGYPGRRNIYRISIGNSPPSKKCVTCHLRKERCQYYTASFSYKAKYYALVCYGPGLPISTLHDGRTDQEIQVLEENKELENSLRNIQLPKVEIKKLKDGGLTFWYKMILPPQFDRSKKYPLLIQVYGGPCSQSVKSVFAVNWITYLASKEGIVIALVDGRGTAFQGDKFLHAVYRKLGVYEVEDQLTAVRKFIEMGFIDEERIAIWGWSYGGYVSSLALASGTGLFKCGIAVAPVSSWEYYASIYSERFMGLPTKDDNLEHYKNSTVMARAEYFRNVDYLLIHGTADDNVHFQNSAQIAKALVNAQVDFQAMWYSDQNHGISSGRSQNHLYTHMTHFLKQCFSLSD

T2: recombinant FAP protein (BioLegend), biotinylated (Homo sapiens (Human), UniProt Q12884 26-760, Biotinylated (sites not given) for loading on streptavidin sensors. Any vendor tag is not stated in the passages shown.)
T2 construct: Loaded on streptavidin sensors for BLI; also called biotinylated FAP
T2 sequence: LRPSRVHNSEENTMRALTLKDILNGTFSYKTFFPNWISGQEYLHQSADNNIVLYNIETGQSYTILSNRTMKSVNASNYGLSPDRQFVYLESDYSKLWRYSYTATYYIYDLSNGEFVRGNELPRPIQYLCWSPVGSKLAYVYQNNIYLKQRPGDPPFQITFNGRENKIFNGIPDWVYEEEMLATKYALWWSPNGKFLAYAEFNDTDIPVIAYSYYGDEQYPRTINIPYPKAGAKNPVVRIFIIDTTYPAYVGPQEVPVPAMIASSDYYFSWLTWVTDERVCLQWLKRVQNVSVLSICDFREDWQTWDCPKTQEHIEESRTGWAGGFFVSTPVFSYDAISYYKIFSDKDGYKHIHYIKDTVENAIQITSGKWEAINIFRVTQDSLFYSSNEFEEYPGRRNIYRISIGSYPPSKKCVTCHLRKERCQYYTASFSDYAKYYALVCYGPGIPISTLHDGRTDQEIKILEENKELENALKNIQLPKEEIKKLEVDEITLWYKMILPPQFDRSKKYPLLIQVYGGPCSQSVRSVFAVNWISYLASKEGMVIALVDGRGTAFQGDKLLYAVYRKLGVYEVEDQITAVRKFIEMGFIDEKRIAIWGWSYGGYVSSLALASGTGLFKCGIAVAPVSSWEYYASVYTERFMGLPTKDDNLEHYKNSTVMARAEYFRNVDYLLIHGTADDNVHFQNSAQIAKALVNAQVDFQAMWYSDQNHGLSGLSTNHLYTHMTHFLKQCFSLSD

B1: 2PE14 (VHH)
VHH: QVQLQESGGGLVQPGGSLRLSCAASGSTFSINAVAWYRQAPGKRRELVAGISGGGVTNYPDSVKGRFTISRDNAKNTVYLQMSSLKPEDTAVYYCNLWPPRASPGGRVYWGQGTQVTVSS
B2: 3PE93 (VHH)
VHH: B1 VHH with G16E, A24V, F29S, I31M, V34M, V56A, V63M, R107G
B3: 2PE42 (VHH)
VHH: B1 VHH with P14A, K64R, G105D
B4: 2PE17 (VHH)
VHH: B1 VHH with P14S
B5: 2PE36 (VHH)
VHH: B1 VHH with G105D
B6: 2PE44 (VHH)
VHH: B1 VHH with I31V, K86I
B7: 3PE57 (VHH)
VHH: B1 VHH with I31V, G105D
B8: 3PE12 (VHH)
VHH: B1 VHH with I31G, V34M, A102V, R107G
B9: 3PE42 (VHH)
VHH: B1 VHH with G16E, A24V, F29S, I31M, V34M, V56A, R107G
B10: 2PE40 (VHH)
VHH: B1 VHH with G26E, T77I
B11: P-1936: 3PE42_M31R (VHH)
VHH: B1 VHH with G16E, A24V, F29S, I31R, V34M, V56A, R107G
notes: also called pET28 PelB-3PE42_M42R
B12: P-1932: 3PE42_M31L (VHH)
VHH: B1 VHH with G16E, A24V, F29S, I31L, V34M, V56A, R107G
notes: also called pET28 PelB-3PE42_M42L
B13: P-1935: 3PE42_M31Q (VHH)
VHH: B1 VHH with G16E, A24V, F29S, I31Q, V34M, V56A, R107G
notes: also called pET28 PelB-3PE42_M42Q
B14: P-1937: 3PE42_M31S (VHH)
VHH: B1 VHH with G16E, A24V, F29S, I31S, V34M, V56A, R107G
notes: also called pET28 PelB-3PE42_M42S
B15: P-1934: 3PE42_M31P (VHH)
VHH: B1 VHH with G16E, A24V, F29S, I31P, V34M, V56A, R107G
notes: also called pET28 PelB-3PE42_M42P
B16: P-1938: 3PE42_M31T (VHH)
VHH: B1 VHH with G16E, A24V, F29S, I31T, V34M, V56A, R107G
notes: also called pET28 PelB-3PE42_M42T
B17: P-1941: 3PE42_M31Y (VHH)
VHH: B1 VHH with G16E, A24V, F29S, I31Y, V34M, V56A, R107G
notes: also called pET28 PelB-3PE42_M42Y
B18: P-1933: 3PE42_M31N (VHH)
VHH: B1 VHH with G16E, A24V, F29S, I31N, V34M, V56A, R107G
notes: also called pET28 PelB-3PE42_M42N
B19: P-1940: 3PE42_M31W (VHH)
VHH: B1 VHH with G16E, A24V, F29S, I31W, V34M, V56A, R107G
notes: also called pET28 PelB-3PE42_M42W
B20: P-1939: 3PE42_M31V (VHH)
VHH: B1 VHH with G16E, A24V, F29S, I31V, V34M, V56A, R107G
notes: also called pET28 PelB-3PE42_M42V
B21: P-1931: 3PE42_M31K (VHH)
VHH: B1 VHH with G16E, A24V, F29S, I31K, V34M, V56A, R107G
notes: also called pET28 PelB-3PE42_M42K

These binders were tested against T1, mouse FAP on transiently transfected … (assay: FACS, serial dilution of purified VHH on transfected HEK293T cells).

Binder | binding result
B1 | binds
B2 | binds
B3 | binds
B4 | binds
B5 | binds
B6 | binds
B7 | binds
B8 | binds
B9 | binds
B10 | binds

Each binder was assayed against T2, recombinant FAP protein (BioLegend), … (assay: BLI (Octet RED96), biotinylated FAP on streptavidin sensors).

Binder | Kd [nM]
B11 | 0.0276
B12 | 0.872
B13 | 0.214
B14 | 0.613
B15 | 1.34
B16 | 1.16
B17 | 1.12
B18 | 0.567
B19 | 0.0945
B20 | 2.45
B21 | 0.851
